Laboratory results from US20260184794A1, “ANTIBODIES AGAINST INTEGRIN ALPHA 11 BETA 1 AND USES THEREOF” (Momenta Pharmaceuticals, Inc., priority 2022, published 2026).
Like-named read-outs stand apart in the source and are kept apart here.

B1: 79E3E3: anti-α11β1 monoclonal antibody from rat hybridoma; VH SEQ ID NO: 8, VL SEQ ID NO: 20 (antibody, V domains shown)
VH: QIQLVQSGPEVKKPGESVKISCKASGYTFTDYAMNWVKQAPGNGLKWMGWINTQTGKPTYADDFKQRFVFSLETSARTTYLQINNLNIEDTATYFCTRLGTGNTKGFAYWGQGTLVTVSS
VL: DILINQSPASLTVSAGERVTMSCKSSQSLLYSENNQDYLAWYQQKPGQFPKLLIYGASNRHTGVPDRFTGSGSGTDFTLTISSVQAEDLADYYCEQTYRYPFTFGSGTKLEIK
B2: 16E10: anti-α11β1 monoclonal antibody from B cell sorting; VH SEQ ID NO: 57, VL SEQ ID NO: 62 (antibody, V domains shown)
VH: QSLEESGGDLVKPGASLTLTCRVSGFSFSSSYYMCWVRQAPGKGLEWIACIGTTRGSTYYATWAKGRFTISKISSTTVTLQMTSLTDADTATYFCARDATGYRINTIGLYFNLWGPGTLVTVSS
VL: ELTQTPSSVEAAVGGTPTIKCQASQTIYSYLSWYQQKPGQPPKLLIYEASKLASGVPSRFSGSGSGTDYTLTISDLECADAATYYCQSYHGTASTEYNTFGGGTEVVVK
B3: 1994-01-C7 (#9): anti-α11β1 monoclonal antibody from human phage display; VH SEQ ID NO: 32, VL SEQ ID NO: 37 (antibody, V domains shown)
VH: QVQLVQSGAEVKKPGASVKVSCKASGYTFTSYGISWVRQAPGQGLEWMGWISAYNGNTNYAQKLQGRVTMTTDTSTSTAYMELRSLRSDDTAAYYCARVTGITGTTIDPWGQGTMVTVSS
VL: DIQMTQSPSSLSASVGDRVTITCRASQSISSYLNWYQQKPGKAPKLLIYDASSLESGVPSRFSGSGSGTEFTLTISSLQPDDFAVYYCQQYNNWPQTFGQGTKVEIK

Experiments:
mouse α11β1 = mouse α11β1 (Mus musculus, UniProt P61622); experiment: Cross-reactivity with mouse α11β1 (SPR); type: binding; details: for Cross reacts with mouse α11β1: yes/no
CHO-hu α11 [1] = target: T1, CHO-hu α11 (Homo sapiens, UniProt Q9UKX5); experiment: FACS antibody binding to CHO-K1 cells expressing human α11
T1 construct: expressed in transfected cells; host or cells: CHO-K1
Procedure: 200,000 cells (wild-type CHO-K1 cells or CHO-K1 cells expressing human α11) were incubated with each antibody at desired concentrations in FACS buffer for 30 min at 4° C. Then, the cells were washed with FACS buffer and incubated with secondary antibody at 1:100 dilution for 30 minutes at 4° C. Cells were then washed and fixed with 1% PF A in PBS for 20 minutes at room temperature; washed again and read on a cytometer in FACS buffer.

[2] = system: CHO cell lines expressing α11; experiment: Collagen gel contraction assay; type: cell-based
Procedure: 24-well plates were blocked with 2% BSA in PBS overnight at 37° C. The following day, the plates were washed 3 times with PBS before being used in the assay. Human CHO cell lines expressing all were harvested and resuspended at 1.25×10^6 in ExpiCHO Expression Medium (Gibco™ Cat #A2910002). The collagen gel solution was prepared by diluting 3 mg/mL stock collagen type I (Gibco™ Collagen I Rat Protein, Tail Cat #A1048301) to I mg/mL in the media containing the CHO cells. Sodium hydroxide was added to the solution to neutralize the pH and 400 μL of the collagen solution was added to each well of the 24-well plates. For the wells where the antibodies were included in the collagen gel solution, CHO cells were prepared at 2.5×10^6 and the antibodies were prepared at 2× final concentration in ExpiCHO media. The cells and antibodies were then combined 1:1 before the addition of the stock collagen type I. The gels were allowed to polymerize for 60 minutes at 37° C. Antibodies were added to the ExpiCHO media, which was then layered on top of the polymerized gel ([…]). The gels were incubated for 6 days at 37° C. before gel contraction was quantified. Images of each well were analyzed using Image J and gel contraction was determined as a percentage of the initial gel area.

[3] = system: Precision cut kidney slices (PCKS); experiment: Human fibrotic precision cut kidney slices (PCKS) treated with TGF-β1 and PDGFββ, secreted mediators; type: cell-based; details: increasing antibody doses, dose dependent; for inhibition of secreted Col1a1: FIG. 2; for inhibition of secreted IL-11: FIG. 3
Procedure: Precision cut kidney slices (PCKS) were treated with TGF-β1 and PDGFββ in the presence or absence of Alk5i and increasing doses of anti-α11β1 antibodies. The antibodies provided an inhibition of secreted pro-fibrotic and pro-inflammatory mediators Col1a1 (1994-01-C7 FIG. 2A, 79E3E3 FIG. 2B, and 16E10 FIG. 2C) and IL-11 (1994-01-C7 FIG. 3A, 79E3E3 FIG. 3B, and 16E10 FIG. 3C) in a dose dependent manner.

CHO-hu α11 [4] = target: T1, CHO-hu α11; experiment: Cell adhesion inhibition on type I collagen (xCelligence); type: cell-based
Procedure: 0.6×10^6 cells/mL were incubated with each antibody at a range of concentrations for 20 minutes at 37° C. E-Plate VIEW 96 PET plate coated with 100 ng/ml type I collagen or PBS overnight at room temperature was blocked in 3% BSA for 1 hour at room temperature. After washing the plate with PBS, cell and antibody mixture was added to the wells and the plate was places into an xCelligence machine. Cell adhesion was recorded over 6 hours. The time point of maximum cell adhesion was used for comparison relative to control.

Pulmonary Myofibroblast = experiment: FACS antibody binding to pulmonary myofibroblasts (HPF/MF); design: species or system human; details: Table 11, 1994-01-C7 variants, FIG. 4B
Procedure: Human Pulmonary Fibroblasts (ScienCell) were cultured in complete Fibroblast Growth Medium (ScienCell) until 80% confluent in T-150 flasks. Cells were washed and harvested using Accutase. Cells were seeded into T-150 flasks at 7,500 cells/cm^2 in complete FGF and cultured for 72 hours. Cells were then washed and starved in serum reduced medium for 24 hours. After starvation, cells were treated with TGFβ1 (R&D Systems) for 72 hours. Cells were harvested using Accutase and seeded in 96-well conical bottom plates. Cells were blocked with Heat Inactived Fetal Bovine Serum (Gibco) for 30 minutes at 4° C. Cells were then incubated with anti-al I antibodies at the doses described in each figure for 30 minutes at 4° C. A human anti-al I antibody (Creative BioLabs) was included as a positive control as well as the appropriate IgG isotype negative controls. Cells were washed twice and incubated with PE conjugated secondary antibodies specific to the IgG class of the anti-α11 antibodies being tested for 30 minutes at 4° C. Cells were washed twice and fixed in 1% PF A for 30 minutes. Cells were acquired on a FACS Verse […]. Data were analyzed by gating on single cells and determining the geometric Mean Fluorescence Intensity (gMFI) in the PE channel for each sample.

cell-mu all = target: T2, cell-mu all (Mus musculus, UniProt P61622); experiment: Binding to cells expressing mouse α11
T2 construct: expressed in transfected cells

mouse α11β1, sequence (P61622 23-1141 limits assumed): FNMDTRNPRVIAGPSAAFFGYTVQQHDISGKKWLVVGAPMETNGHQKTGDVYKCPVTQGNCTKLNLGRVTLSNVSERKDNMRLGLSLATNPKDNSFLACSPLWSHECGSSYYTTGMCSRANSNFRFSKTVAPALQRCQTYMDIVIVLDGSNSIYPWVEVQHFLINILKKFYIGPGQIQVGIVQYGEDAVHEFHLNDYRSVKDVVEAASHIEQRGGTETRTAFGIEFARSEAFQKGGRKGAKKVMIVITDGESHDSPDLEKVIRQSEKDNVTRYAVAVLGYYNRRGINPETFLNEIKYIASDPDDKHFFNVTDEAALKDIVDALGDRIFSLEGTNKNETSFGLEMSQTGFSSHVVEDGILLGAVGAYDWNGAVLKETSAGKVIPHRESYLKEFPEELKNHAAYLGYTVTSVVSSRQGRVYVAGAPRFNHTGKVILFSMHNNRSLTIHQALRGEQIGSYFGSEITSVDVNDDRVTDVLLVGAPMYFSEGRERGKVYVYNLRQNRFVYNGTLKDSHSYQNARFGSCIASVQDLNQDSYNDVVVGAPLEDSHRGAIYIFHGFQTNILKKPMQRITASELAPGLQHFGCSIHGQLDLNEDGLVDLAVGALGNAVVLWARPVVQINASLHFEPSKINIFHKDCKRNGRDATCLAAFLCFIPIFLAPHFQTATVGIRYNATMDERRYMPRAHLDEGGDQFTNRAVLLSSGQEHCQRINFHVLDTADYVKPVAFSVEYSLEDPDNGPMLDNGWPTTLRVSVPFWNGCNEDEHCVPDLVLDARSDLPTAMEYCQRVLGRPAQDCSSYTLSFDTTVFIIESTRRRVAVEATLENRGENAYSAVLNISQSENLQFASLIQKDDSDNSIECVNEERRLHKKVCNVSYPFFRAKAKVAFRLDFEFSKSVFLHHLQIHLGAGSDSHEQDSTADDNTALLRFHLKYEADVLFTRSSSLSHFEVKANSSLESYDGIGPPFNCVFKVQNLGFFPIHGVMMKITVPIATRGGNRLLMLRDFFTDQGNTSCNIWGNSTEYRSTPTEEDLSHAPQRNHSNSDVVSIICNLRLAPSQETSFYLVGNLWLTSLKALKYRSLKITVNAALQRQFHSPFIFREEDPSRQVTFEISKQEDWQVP
mouse α11β1, sequence (P09055 21-728 partner limits assumed): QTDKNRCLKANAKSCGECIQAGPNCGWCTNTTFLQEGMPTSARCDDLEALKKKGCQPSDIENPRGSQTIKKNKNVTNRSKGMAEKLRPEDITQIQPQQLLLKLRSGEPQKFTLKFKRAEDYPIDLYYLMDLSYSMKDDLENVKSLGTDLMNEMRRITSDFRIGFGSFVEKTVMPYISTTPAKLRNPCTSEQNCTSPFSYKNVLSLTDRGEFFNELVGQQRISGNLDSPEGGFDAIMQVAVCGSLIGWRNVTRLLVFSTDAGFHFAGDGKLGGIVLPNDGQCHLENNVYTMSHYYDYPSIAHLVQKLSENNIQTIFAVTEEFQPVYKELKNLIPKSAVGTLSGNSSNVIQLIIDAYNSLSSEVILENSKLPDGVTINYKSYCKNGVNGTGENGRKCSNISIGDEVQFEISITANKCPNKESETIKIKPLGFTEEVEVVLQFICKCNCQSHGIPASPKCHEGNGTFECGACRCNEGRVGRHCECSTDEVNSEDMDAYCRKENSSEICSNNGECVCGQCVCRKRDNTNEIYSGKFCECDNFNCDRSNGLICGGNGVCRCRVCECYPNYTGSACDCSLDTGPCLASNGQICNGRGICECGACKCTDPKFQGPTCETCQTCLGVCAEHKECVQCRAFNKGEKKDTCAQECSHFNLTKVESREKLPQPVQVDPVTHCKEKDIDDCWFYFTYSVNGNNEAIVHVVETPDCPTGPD
T1 sequence (Q9UKX5 23-1188): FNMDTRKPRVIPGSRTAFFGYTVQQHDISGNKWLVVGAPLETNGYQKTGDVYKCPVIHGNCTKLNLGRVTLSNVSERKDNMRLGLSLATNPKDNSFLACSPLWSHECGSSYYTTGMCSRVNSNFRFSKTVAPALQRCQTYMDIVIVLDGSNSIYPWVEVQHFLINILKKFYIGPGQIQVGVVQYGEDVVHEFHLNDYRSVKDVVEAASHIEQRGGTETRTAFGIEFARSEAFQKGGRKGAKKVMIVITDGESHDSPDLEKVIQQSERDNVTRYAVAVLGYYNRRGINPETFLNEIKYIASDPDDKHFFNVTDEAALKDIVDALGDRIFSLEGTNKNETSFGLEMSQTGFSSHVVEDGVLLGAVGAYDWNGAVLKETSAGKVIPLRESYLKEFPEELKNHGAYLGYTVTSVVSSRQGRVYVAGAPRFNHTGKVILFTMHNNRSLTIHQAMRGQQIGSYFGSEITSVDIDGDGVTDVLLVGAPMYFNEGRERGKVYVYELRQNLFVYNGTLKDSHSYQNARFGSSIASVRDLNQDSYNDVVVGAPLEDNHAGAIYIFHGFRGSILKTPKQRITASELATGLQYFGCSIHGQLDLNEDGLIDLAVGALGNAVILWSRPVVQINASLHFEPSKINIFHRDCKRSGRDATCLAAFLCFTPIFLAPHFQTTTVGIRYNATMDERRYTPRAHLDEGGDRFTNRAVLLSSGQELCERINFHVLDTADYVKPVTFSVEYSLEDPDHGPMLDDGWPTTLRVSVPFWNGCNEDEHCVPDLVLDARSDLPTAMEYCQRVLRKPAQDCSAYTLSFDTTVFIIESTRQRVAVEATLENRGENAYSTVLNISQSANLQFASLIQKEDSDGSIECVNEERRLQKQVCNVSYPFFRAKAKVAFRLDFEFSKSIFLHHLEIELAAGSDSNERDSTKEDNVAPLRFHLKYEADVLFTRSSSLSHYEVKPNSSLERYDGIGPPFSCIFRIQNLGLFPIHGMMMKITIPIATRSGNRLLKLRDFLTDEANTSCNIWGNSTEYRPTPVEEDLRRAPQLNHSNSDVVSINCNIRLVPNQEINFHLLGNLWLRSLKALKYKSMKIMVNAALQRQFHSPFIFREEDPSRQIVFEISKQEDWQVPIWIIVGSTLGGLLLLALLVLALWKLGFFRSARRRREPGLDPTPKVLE
T1 sequence (P05556 21-798 partner): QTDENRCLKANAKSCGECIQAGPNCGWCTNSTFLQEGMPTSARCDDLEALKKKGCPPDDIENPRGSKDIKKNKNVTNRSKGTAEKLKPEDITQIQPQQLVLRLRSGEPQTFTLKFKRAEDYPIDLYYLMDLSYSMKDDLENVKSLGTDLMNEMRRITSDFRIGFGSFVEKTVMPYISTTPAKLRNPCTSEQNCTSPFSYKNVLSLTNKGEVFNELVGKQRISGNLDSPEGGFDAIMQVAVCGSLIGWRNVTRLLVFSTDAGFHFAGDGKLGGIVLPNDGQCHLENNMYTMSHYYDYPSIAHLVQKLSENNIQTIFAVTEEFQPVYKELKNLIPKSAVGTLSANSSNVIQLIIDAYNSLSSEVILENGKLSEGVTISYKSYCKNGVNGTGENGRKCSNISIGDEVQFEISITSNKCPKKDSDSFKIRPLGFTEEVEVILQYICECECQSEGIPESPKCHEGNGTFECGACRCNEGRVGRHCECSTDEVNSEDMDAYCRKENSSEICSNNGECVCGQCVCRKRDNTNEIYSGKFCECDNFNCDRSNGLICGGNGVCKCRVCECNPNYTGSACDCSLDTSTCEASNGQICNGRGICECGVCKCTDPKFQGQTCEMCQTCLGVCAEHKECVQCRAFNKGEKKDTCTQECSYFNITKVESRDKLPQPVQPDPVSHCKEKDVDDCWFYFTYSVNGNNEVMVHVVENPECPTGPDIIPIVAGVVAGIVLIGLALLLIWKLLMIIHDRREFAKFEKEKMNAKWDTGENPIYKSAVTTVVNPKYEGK

Molecule	Kd (mouse α11β1; mouse α11β1, method not given, read-out: Cross reacts with mouse α11β1 (affinity)) [nM]	EC50 (CHO-hu α11 [1]; Table 13, 79E3E3 variants) [nM]	Inhibits CHO-α11 mediated collagen gel contraction [2]	inhibition of secreted Col1a1 [3]	inhibition of secreted IL-11 [3]	Cross reacts with mouse α11β1 (mouse α11β1)	IC50 (CHO-hu α11 [4]; Table 12, 16E10 variants, FIG. 5B, read-out: CHO-α11 Adhesion Inhibition IC50) [nM]	EC50 (CHO-hu α11 [1]; Table 11, 1994-01-C7 variants, FIG. 4A) [nM]	EC50 (Pulmonary Myofibroblast) [nM]	IC50 (CHO-hu α11 [4]; Table 11, 1994-01-C7 variants, FIG. 4C, read-out: Inhibition of Cell Adhesion IC50) [nM]	binds cell-mu all (cell-mu all)
B1	0.21	2.5	Yes	inhibition	inhibition						
B2			Yes	inhibition	inhibition	No	0.4				
B3			Yes	inhibition	inhibition	No by SPR		3	3.6	3.4	binds
